B1: COW1 promoter probe (dsDNA)
DNA 1: TTTCTCTCATATTTAATTTATTTACTTAGAAA
DNA 2: TTTCTAAGTAAATAAATTAAATATGAGAGAAA
B2: PRP3 promoter probe (dsDNA)
DNA 1: GTCCAAATATTTATATTATAAGATACATTTTAATATTTAATTATGATTTAGTAGA
DNA 2: TCTACTAAATCATAATTAAATATTAAAATGTATCTTATAATATAAATATTTGGAC

Key:
[1] = target: MBP-AHL17-His (Arabidopsis thaliana, UniProt Q9LTA2 1-276); assay: EMSA; reduced by unlabeled probe; EMSA as in Sun et al. 2016; buffer, salt, pH and temperature not given; FAM-labeled probe 1 uM (Fig. S6); details: protein: recombinant; tags: N-terminal MBP; C-terminal 6xHis; label: FAM; blunt
[2] = target: T1, MBP-AHL28 (Arabidopsis thaliana, UniProt Q9M9R4 1-206); assay: EMSA; 1.5 ug protein, 1 uM probe; reduced by unlabeled probe; EMSA as in Sun et al. 2016; buffer, salt, pH and temperature not given; FAM-labeled probe 1 uM (Fig. S6); details: protein: recombinant; tags: N-terminal MBP; label: FAM; blunt
T1 sequence: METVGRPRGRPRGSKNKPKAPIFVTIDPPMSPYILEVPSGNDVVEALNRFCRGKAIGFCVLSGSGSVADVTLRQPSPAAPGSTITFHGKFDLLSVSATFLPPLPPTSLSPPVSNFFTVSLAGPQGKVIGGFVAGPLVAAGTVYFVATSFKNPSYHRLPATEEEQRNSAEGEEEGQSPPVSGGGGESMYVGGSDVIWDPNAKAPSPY

Binder	binding result [1]	binding result [2]
B1	binds	binds
B2	binds	binds

Reference: paper PMC10416611, “Overexpression of AHL proteins enhances root hair production by altering the transcription of RHD6‐downstream genes”
